# According to publication PMC3842537:
# Assays:
# [1] = molecular target: thrombin (human, UniProt P00734;P00734 328-363;364-622); test: FAM fluorescence recovery on GO array
# [2] = molecular target: PDGF-BB (human, UniProt P01127 82-190); test: FAM fluorescence recovery on GO array
# Sequence of PDGF-BB (P01127 82-190): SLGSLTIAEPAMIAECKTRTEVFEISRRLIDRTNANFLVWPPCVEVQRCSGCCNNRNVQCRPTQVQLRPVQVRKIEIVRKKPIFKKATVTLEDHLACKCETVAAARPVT
Binder,binding result [1],binding result [2]
AGTCCGTGGTAGGGCAGGTTGGGGTGACT (structured_DNA) [thrombin aptamer (TASSET)],binds,
CAGGCTACGGCACGTAGAGCATCACCATGATCCTG (structured_DNA) [PDGF aptamer],,binds
